Assays:
[1] = biological target: the molecule itself; experiment: non-reducing SDS-PAGE, disulfide-linked homodimer
[2] = biological target: the molecule itself; experiment: SEC, then non-reducing and reducing SDS-PAGE

B1: SP-BM purified from bovine lungs (other, UniProt P15781 188-266, looked up)
chain: FPIPIPYCWLCRTLIKRIQAVIPKGVLAMTVAQVCHVVPLLVGGICQCLVERYSVILLDTLLGRMLPQLVCGLVLRCSS
modifications: monomers disulfide-linked through Cys48
notes: domain: SP-BM; also called bovine SP-BM; mature SP-B
**Q.** Does B1 bind [1]?
**A.** Result: binds

B2: recombinant human SP-BM (other)
chain: PIPLPYCWLCRALIKRIQAMIPKGALAVAVAQVCRVVPLVAGGICQCLAERYSVILLDTLLGRMLPQLVCRLVLRCSM
modifications: inter-molecular disulfide bond in the dimer
notes: also called recombinant SP-BM
**Q.** Does B2 bind [2]?
**A.** Result: binds
